Publication doi:10.1101/2023.06.21.546012 (bioRxiv, 2023)

T1: Tom40 (S. cerevisiae (endogenous in the …, UniProt P23644 1-387))
T1 sequence: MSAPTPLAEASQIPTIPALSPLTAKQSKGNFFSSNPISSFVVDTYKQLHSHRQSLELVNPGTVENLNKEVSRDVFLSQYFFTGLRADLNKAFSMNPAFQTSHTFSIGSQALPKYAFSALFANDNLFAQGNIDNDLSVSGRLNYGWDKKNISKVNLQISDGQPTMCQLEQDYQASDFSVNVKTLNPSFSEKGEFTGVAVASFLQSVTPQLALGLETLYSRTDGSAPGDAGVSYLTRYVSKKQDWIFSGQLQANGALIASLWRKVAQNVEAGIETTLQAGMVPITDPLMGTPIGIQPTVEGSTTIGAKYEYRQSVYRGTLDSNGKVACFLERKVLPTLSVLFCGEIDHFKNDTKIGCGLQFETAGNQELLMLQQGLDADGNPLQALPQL

B1: Tom7 (natural protein)
chain: MSFLPSFILSDESKERISKILTLTHNVAHYGWIPFVLYLGWAHTSNRPNFLNLLSPLPSV
B2: Tom6 (natural protein)
chain: MDGMFAMPGAAAGAASPQQPKSRFQAFKESPLYTIALNGAFFVAGVAFIQSPLMDMLAPQL
B3: Tom22 with a C-terminal His10 tag (natural protein)
chain: MVELTEIKDDVVQLDEPQFSRNQAIVEEKASATNNDVVDDEDDSDSDFEDEFDENETLLDRIVALKDIVPPGKRQTISNFFGFTSSFVRNAFTKSGNLAWTLTTTALLLGVPLSLSILAEQQLIEMEKTFDLQSDANNILAQGEKDAAATAN

target: T1, Tom40; assay: cryo-EM structure

| binding result | Binder |
| --- | --- |
| binds | B1 |
| binds | B2 |
| binds | MFGLPQQEVSEEEKRAHQEQTEKTLKQAAYVAAFLWVSPMIWHLVKKQWK (natural protein) [Tom5] |
| binds | B3 |
